Measured values as given in patent publication US20120114652A1 (AbbVie / Abbott, published 2012).

What was measured:
rat PAI-1 [1] = molecular target: T1, rat PAI-1 (rat, UniProt P20961 24-402); assay: cell-based or functional assay
T1 sequence: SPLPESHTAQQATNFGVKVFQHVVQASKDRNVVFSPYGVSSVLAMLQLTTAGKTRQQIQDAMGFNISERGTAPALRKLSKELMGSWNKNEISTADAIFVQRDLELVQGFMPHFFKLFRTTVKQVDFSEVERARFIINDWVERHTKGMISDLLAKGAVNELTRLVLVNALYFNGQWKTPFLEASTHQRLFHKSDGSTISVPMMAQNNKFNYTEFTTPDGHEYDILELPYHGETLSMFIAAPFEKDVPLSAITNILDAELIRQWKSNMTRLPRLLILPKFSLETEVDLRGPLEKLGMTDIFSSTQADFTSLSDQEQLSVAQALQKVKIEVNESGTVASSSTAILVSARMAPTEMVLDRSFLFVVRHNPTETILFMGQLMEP

[2] = molecular target: human PAI-1, active, wild-type, non-glycosylated (E. coli-derived) (human, UniProt P05121 24-402); assay: cell-based or functional assay
cynomolgus PAI-1 = cynomolgus PAI-1 (cynomolgus, UniProt P05121 24-402 (human entry), limits assumed); assay: cell-based or functional assay
latent human PAI-1 [3] = molecular target: T2, latent human PAI-1 (human, UniProt P05121 24-402); assay: IgG competition ELISA (DELFIA) against biotinylated human PAI-1, one-site binding analysis; column Human latent
T2 construct: also called latent PAI-1

mouse PAI-1 = molecular target: T3, mouse PAI-1 (mouse, UniProt P22777 24-401); assay: IgG competition ELISA (DELFIA) against biotinylated human PAI-1, one-site binding analysis; column Mouse
T3 construct: bought (US Biological); also called murine PAI-1
T3 sequence: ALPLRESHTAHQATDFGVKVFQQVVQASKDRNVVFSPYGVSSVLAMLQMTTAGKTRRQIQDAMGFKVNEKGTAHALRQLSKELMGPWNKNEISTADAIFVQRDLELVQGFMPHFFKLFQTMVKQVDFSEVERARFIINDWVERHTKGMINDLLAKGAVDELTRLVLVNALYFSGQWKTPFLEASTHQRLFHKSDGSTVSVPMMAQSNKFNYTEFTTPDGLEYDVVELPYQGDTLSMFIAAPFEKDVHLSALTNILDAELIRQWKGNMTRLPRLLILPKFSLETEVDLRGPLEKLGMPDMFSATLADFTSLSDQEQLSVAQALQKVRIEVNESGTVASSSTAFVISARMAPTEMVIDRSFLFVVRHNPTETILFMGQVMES

rat PAI-1 [4] = molecular target: T1, rat PAI-1; assay: IgG competition ELISA (DELFIA) against biotinylated human PAI-1, one-site binding analysis; column Rat
rabbit PAI-1 = molecular target: T4, rabbit PAI-1 (rabbit); assay: IgG competition ELISA (DELFIA) against biotinylated human PAI-1, one-site binding analysis; column Rabbit
T4 chain: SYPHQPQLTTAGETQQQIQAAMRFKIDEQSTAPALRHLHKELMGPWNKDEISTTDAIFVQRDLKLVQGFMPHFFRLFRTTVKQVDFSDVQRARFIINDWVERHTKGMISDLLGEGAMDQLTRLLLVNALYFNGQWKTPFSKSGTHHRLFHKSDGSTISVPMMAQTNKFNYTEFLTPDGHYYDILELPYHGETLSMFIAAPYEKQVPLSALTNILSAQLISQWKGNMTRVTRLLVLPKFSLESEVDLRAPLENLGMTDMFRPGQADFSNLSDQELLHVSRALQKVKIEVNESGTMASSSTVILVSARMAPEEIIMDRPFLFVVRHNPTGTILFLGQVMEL

[5] = molecular target: T5, glycosylated active human PAI-1 produced by CHO cells (human, UniProt P05121 24-402, N-glycosylated (CHO-produced)); assay: IgG competition ELISA (DELFIA) against biotinylated human PAI-1, one-site binding analysis; column Human glycosylated
T5 construct: also called hu glyco; human glycosylated PAI-1

latent human PAI-1 [6] = molecular target: T2, latent human PAI-1; assay: IgG competition ELISA (DELFIA), one-site binding analysis
[7] = molecular target: T6, dog PAI-1 (bacterially-derived active dog PAI-1) (dog); assay: IgG competition ELISA (DELFIA) against biotinylated human PAI-1, one-site binding analysis; column Dog
T6 construct: also called canine PAI-1

α1-antitrypsin = molecular target: T7, α1-antitrypsin (UniProt P01009 25-418); assay: competition ELISA (DELFIA): PICK167_A01 IgG1 coated on the plate, biotinylated human PAI-1, titration of the unlabelled test antigen
T7 construct: also called alpha-1-antitrypsin

α1-antichymotrypsin = molecular target: T8, α1-antichymotrypsin (UniProt P01011 24-423); assay: as above
T8 sequence (looked up): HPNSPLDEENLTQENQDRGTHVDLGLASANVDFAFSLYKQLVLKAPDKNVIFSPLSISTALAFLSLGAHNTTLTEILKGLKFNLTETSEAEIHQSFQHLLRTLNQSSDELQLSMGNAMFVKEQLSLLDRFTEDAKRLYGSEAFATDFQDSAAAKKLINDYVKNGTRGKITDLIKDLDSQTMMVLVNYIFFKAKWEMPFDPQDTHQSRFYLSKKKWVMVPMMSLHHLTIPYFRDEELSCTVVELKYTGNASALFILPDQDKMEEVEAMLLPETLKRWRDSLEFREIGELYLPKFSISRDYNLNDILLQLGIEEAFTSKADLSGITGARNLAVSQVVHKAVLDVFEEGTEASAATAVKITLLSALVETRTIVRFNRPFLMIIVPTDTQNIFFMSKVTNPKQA

B1: PICK167_A01 IgG1 (antibody, V domains shown)
VH: QVQLQQSGAEVKKPGSSVKVSCKASGGTFSSYAISWVRQAPGQRLEWMGGIIPTFGTANYAQKFQGRVTITADESTSTAYMELSGLRSEDTAVYYCARERRQWLEGHFDYWGRGTPVTVSS
VL: DIQMTQSPSFLSASIGDRVTITCRASEGIYHNLAWYQQKPGKAPKLLIYKASSLASGAPSRFSGSRSGTDFTLTISSLQPDDFATYYCQQYSNYPLTFGGGTKLEIKR
Rat PAI-1 [1]
  IC50, PAI-1:tPA functional assay: 1.97 nM
[2]
  IC50, PAI-1:tPA functional assay: 1.34 nM
Cynomolgus PAI-1
  IC50, PAI-1:tPA functional assay: 0.8 nM
Latent human PAI-1 [3]
  fold difference in observed binding KD compared to human wild-type active: 8.5 fold
Mouse PAI-1
  fold difference in observed binding KD compared to human wild-type active: 47 fold
Rat PAI-1 [4]
  fold difference in observed binding KD compared to human wild-type active: 9.7 fold
Rabbit PAI-1
  fold difference in observed binding KD compared to human wild-type active: 41.5 fold
[5]
  fold difference in observed binding KD compared to human wild-type active: 1.2 fold
Latent human PAI-1 [6]
  fold loss of binding affinity against wild-type active PAI-1: 10 fold
[7]
  fold difference in observed binding KD compared to human wild-type active: 2.7 fold
α1-antitrypsin
  binding result: no binding (tested: log M about -6.3 (about 5e-7 M))
α1-antichymotrypsin
  binding result: no binding (tested: log M about -6.3 (about 5e-7 M))
